Experimental data as given in the supplement of paper PMC9170038.

Tested on: K4 kissing-loop RNA reporter
Assay: apparent KD of K4 kissing-loop reporter; higher = weaker reporter binding
Details: Eterna round: R107
Experimental: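 RNA-MaP round R107: designed RNA switches with theophylline, tryptophan, arginine or FMN aptamers are transcribed on-chip within common flanks. They are titrated with a labelled K4 kissing-loop RNA reporter in RNA-MaP buffer (100 mM Tris pH 7.5, 80 mM KCl, 4 mM MgCl2), without ligand or with the indicated ligand. Median apparent KD per design.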

[1] = input ligand: theophylline 20 uM
[2] = input ligand: tryptophan 2.4 mM
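Further: bound reporter read as fluorescence of individual clusters on recovered sequencing chips by microscopy, with normalized cluster intensities fitted with a binding model.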

Sequence | apparent KD of K4 kissing-loop reporter (input ligand: FMN 200 uM) | apparent KD of K4 kissing-loop reporter (input ligand: arginine 13.2 mM) | apparent KD of K4 kissing-loop reporter (input ligand: none) | apparent KD of K4 kissing-loop reporter [1] | apparent KD of K4 kissing-loop reporter [2]
UGAUACCAGACUGAUACCAGCCAGUGAUGUUGGCUAAUCCGAGAAGGAGUCAAAGACUCCGGCCCUUGGCAGCAGUCUGGUAUCU [TheoBX 4 #SwitchBubble #StaticStem] | 133 nM | 117 nM | 133 nM | 128 nM | 121 nM
UGAUACCAGACUGAUACCAGCGAGUGAUGUUUGCUGAUCUAAAGCAGUCAAAGACUGCCUUGCCCUUGGCAGCAGUCUGGUAUCU [TheoBX 26 #SwitchBubble #StaticStem] | 294 nM | 235 nM | 275 nM | 351 nM | 264 nM
UGAUAGGACAGAAGGAGCGGAAGUGAUGUUUCCAAAAGGCUAAGGUGUCAAAAGACACCCUUCCAGGUAGGUCGCUGUCCUAUCU | 237 nM | 274 nM | 221 nM | 260 nM | 203 nM
UGAUAGGACAGAAGGAGCGGAGCUGGUCAAAGACCAGCAAUACGUUAAAUAGGAGUGAUGUUCCAGGUAGGUCGCUGUCCUAUCU [ArgBX 28 #SwitchBubble #StaticStem] | 131 nM | 121 nM | 121 nM | 101 nM | 87.9 nM
UGAUAGGACAGAAGGAGCGGCAGUGAUGUUGCCAAAAGGAUAAGGUGUCAAAAGACACCCUGCCAGGUAGGUCGCUGUCCUAUCU | 179 nM | 366 nM | 259 nM | 298 nM | 208 nM
UGAUAGGACAGAAGGAGCGGUAGUGAUGUUACCAAAAGUAUAAGGUGUCAAAAGACACCCUACCAGGUAGGUCGCUGUCCUAUCU | 292 nM | 295 nM | 367 nM | 506 nM | 286 nM
UGAUAGGACAGAAGGAGCGGUAGUGAUGUUGCCAAAAGAAUAAGGUGUCAAAAGACACCCUGCCAGGUAGGUCGCUGUCCUAUCU | 139 nM | 189 nM | 144 nM | 188 nM | 120 nM
UGAUAGGAGAGAAGGAGCGGGAGUGAUGUUCCCAAAGAUUGGUCUAGCAAAGCUGGACCCUCCCAGGUAGGUCGCUCUCCUAUCU [KL-XARG-B16] | 382 nM | 419 nM | 434 nM | 405 nM | 357 nM
UGAUGUUUAGGUCACCCAGUGAUGUUGGAAGGAGCGUGCGAAAGCACAGGUAGGUCGCCAAUCUCCUUGUGACCUGAGCAUCUAA [#SwitchBubble 14 #K4Early] | 976 nM | 787 nM | 1050 nM | 979 nM | 854 nM
UGAUGUUUAGUUCACCCAGUGAUGUUGGAAGGAGCGUGCGAAAGCACAGGUAGGUCGCCAACCUAAAAGUGUCUUGAUUAUCUAA [JR_Nu_ExcArginiA_Sub028] | 352 nM | 317 nM | 444 nM | 460 nM | 289 nM
UGAUUUAACUGAAGGAGCGGCAAUUGAUAAGUAAAUAUAGUGAUGUUAUAUAAGAUAGAGAGCCAGGUAGGUCGCAGAGGGAGGA [ExArgB.J] | 169 nM | 139 nM | 159 nM | 159 nM | 129 nM
UGAUUUAACUGAAGGAGCGGCAAUUGAUAAGUAAAUAUAGUGAUGUUAUAUAAGAUAGAGAGCCAGGUAGGUCGCAGAGGUAGGA [ExArgB.K] | 193 nM | 139 nM | 152 nM | 178 nM | 127 nM
UGCACGGGCUCGGCCGCCACUCCAGCGGGUCGCAAGGUCCGCUACUGAGUGAUGUUCGGUUGGAGGAGGACCGGGAGCCCGUGCG [#2 Exclusion - Tryptophan B Attempt #31 (HarryS)] | 146 nM | 114 nM | 133 nM | 139 nM | 126 nM
UGCACGUAGUGAUGUUACAGCAAGUUUAUGAAGGAUAUGAGGUUAGUCAGAAGGUCAGCCGUCUCGUUGUAAGCACCUUAUCAUU [theeternabot_exclusion_KL_FMN_A_14] | 305 nM | 144 nM | 232 nM | 158 nM | 155 nM
UGCAGUGAUGUUGCUAUUUGUCUUGAUUAACGAGGACCGGUACGGCCGCCACUCGAUUUCUCUCUAAUCGAGUAUGUUGUUUAGU [#19 K4 Tryptophan A Exclusion] | 153 nM | 184 nM | 162 nM | 203 nM | 114 nM
UGCAGUGAUGUUGCUAUUUUUCUUGAUUAACGAGGACCGGUACGGCCGCCACUCGAUUUCUCUCUAAUCCAGUAUGUUGUUUAGU [JR_ExcTryptoA_Sub001] | 111 nM | 144 nM | 121 nM | 140 nM | 90.4 nM
UGCAUGCGUAGAGUGAUGUUCUAAGAUGAUACCAGUGCGGAAACGCACCCUUGGCAGCAUCUGACUGCAUGCACGUCGAAAGACG | 718 nM | 666 nM | 826 nM | 399 nM | 598 nM
UGCAUGCUUGUAGUGAUGUUACAAGAUGAUACCAGUGCUUUUUUGCACCCUUGGCAGCGUCAUAGUGCAUGCACGUCGAAAGACG | 219 nM | 153 nM | 211 nM | 320 nM | 201 nM
UGCUUAAUGGAAGGAUAUUAGGGUUCGACCGCGUAUCAUUGUUAGUCUGGCCAGUGAUGUUGGCCUUAAGAAGGUCCGCUACGGU [theeternabot_exclusion_KL_FMN_B_27] | 207 nM | 201 nM | 171 nM | 204 nM | 130 nM
UGCUUUAUCAGAAGGAGCGCGUUGGUCAUAAUAAUAAUCAGUGAUGUUGAUAUAUGAGGAUUGCAGGUAGGUCGCUGAUAUAGCU [KL-XARG-B1] | 323 nM | 210 nM | 390 nM | 255 nM | 229 nM
UGGACAUGACUCGAUAAGAGUCAAUGGGAUACCAGUGACGAAAGUCACCCUUGGCAGCUCAACUGCCAGUGAUGUUGGUAGUCCU [Astros-Elimod] | 205 nM | 119 nM | 207 nM | 157 nM | 125 nM
UGGACCAAGGAGUGAUGUUCCAAAUGUGAUACCAGCCACGAAAGUGGCCCUUGGCAGCACUGCCAGGACGAAAACGUCCGGUCCU [#SwitchBubble 12 #StaticStem #K4Early] | 358 nM | 367 nM | 391 nM | 777 nM | 261 nM

Sequence | apparent KD of K4 kissing-loop reporter (input ligand: FMN 200 uM) | apparent KD of K4 kissing-loop reporter (input ligand: arginine 13.2 mM) | apparent KD of K4 kissing-loop reporter (input ligand: none) | apparent KD of K4 kissing-loop reporter [1] | apparent KD of K4 kissing-loop reporter [2]
UGGACCAAGGAGUGAUGUUCCAUAUGUGAUACCAGCCACGAAAGUGGCCCUUGGCAGCACUGCCAGGACGAAAACGUCCGGUCCU [#SwitchBubble 13 #StaticStem #K4Early] | 390 nM | 346 nM | 503 nM | 477 nM | 321 nM
UGGACCAGGAGUGAUGUUCCAAAAUGUGAUACCAGCCACGAAAGUGGCCCUUGGCAGCACUGCCAGGACGAAAACGUCCGGUCCU [#SwitchBubble 11 #StaticStem #K4Early] | 285 nM | 191 nM | 278 nM | 268 nM | 154 nM
UGGACGUUAUACAAUAAGUAUAACUGGGAUACCAGUGACGAAAGUCACCCUUGGCAGCUCAACUGCCAGUGAUGUUGGUAGUCCA [Astros-Eli-mod#5] | 273 nM | 116 nM | 200 nM | 235 nM | 161 nM
UGGAGUUGACGAAAAGUCAACUCCGGAGAAGGAGCGGACGAAAGUCCAGGUAGGUCGCUCCCUACCAGUGAUGUUGGUACUGAAA | 244 nM | 241 nM | 209 nM | 319 nM | 181 nM
UGGAUAUAGUGAUGUUAUAUAGAGAUGGAUACCAGUUAAGAGAAUAGCCCUUGGCAGCCGAAAGAAGUAUCAUUAGAGAAGAAUG [ExTheophyl.Ad] | 261 nM | 183 nM | 239 nM | 194 nM | 195 nM
UGGAUAUAGUGAUGUUAUAUAGAGAUGGAUACCAGUUGAGAGAAUAGCCCUUGGCAGCCGAAAGAAGUAUCAUUAGAGAAGAAUG [ExTheophyl.Ak] | 269 nM | 200 nM | 230 nM | 219 nM | 173 nM
UGGAUAUAGUGAUGUUAUAUAGAGAUGGAUACCAGUUUAGAGAAGAGCCCUUGGCAGCCGAAAGAAGUAUCAUUAGAGAAGAAUG [ExTheophyl.Al] | 257 nM | 164 nM | 214 nM | 212 nM | 179 nM
UGGAUAUAGUGAUGUUAUAUAGAGAUUGAUACCAGUUAAGAGAAUAGCCCUUGGCAGCAGAAAGAAGUAUCAUUAGAGAAGAAUG [ExTheophyl.Ac] | 256 nM | 182 nM | 222 nM | 213 nM | 177 nM
UGGCGAGUGAUGUUCGUUGUUGUAGUGUGUCGAGGACCGGUACGGCCGCCACUCGAGUUGGUUGUUGUUGUUGCUGUUGUUGCUG [#03 K4 Tryptophan A Same State] | 196 nM | 158 nM | 181 nM | 157 nM | 99 nM
UGGCGAGUGAUGUUCGUUGUUGUAGUGUGUCGAGGACCGGUACGGCCGCCACUCGGGUUGGUUGUUGUUGUUGUUGUUGUUGUUG [First Shot] | 218 nM | 187 nM | 196 nM | 292 nM | 101 nM
UGGCGUAGAACCGCCGAAUCGCUGUGAGAAGGAGCGGUAAAAUUGCCAGGUAGGUCGCUCACAGCCUCACAGUGAUGUUGUGGGA [Cequralaza] | 758 nM | 105 nM | 117 nM | 290 nM | 212 nM
UGGGAUGUUAAAGGAUAUAGCAAGUGAUAUAAGAAAGUGAGUGAUGUUGAUGUAGGUGAUGAUAUGUUAGAAGGUUAACAAAACG [abcdefg] | 350 nM | 217 nM | 356 nM | 294 nM | 257 nM
UGUAAGCGCGUAGAUACCAGCAAACAAAGAGUGAUGUUCAGAUUAAGGAAAAGAAAGUAAUGCCCUUGGCAGCUAAUCAUAAGCG [Theophylline B Exclusion; Euphoria Solution] | 419 nM | 409 nM | 354 nM | 497 nM | 319 nM
UGUAAUGAGUGAUGUUCAUGUAGUAAGGAUACCAGUAAUUCAAAAUGCCCUUGGCAGCUUAGUUCUAUCUAUAGUUGGGUAGUGG [Theophilline A V4 (+5U)] | 162 nM | 209 nM | 205 nM | 206 nM | 123 nM
UGUACCGAGACAGGAUAUGUCGUCGAAAGACGAAAUGGAGUGAUGUUCCUUAAACUGCGAAAGCAGACAGAAGGGUCUUGGUACU [FmnBS 29 A10+U76] | 132 nM | 172 nM | 163 nM | 165 nM | 176 nM
UGUACCGAGGCAGGAUAUGUCGUCGAAAGACGAAAUGGAGUGAUGUUCCUUAAACUGCGAAAGCAGACAGAAGGGUCUUGGUACU [FmnBS 29 G10+U76] | 132 nM | 178 nM | 181 nM | 167 nM | 171 nM
UGUACCGAGUCAGGAUAUGGCGUCGAAAGACGAAUCCUAGUGAUGUUAGGGAUCUGCGAAAGCAGUCCAGAAGGGACUUGGUACU [FmnBS 26 #SwitchBubble #StaticStem #DoubleMagnetSystem] | 275 nM | 340 nM | 357 nM | 389 nM | 373 nM
UGUACCGAGUUAGGAUAUGUCGUCGAAAGACGAAAUGGAGUGAUGUUCCUUAAACUGCGAAAGCAGACAGAAGGAACUUGGUACU [FmnBS 29 U11+A75] | 190 nM | 627 nM | 544 nM | 546 nM | 476 nM
UGUAUGUGAUGUGAUACCAGUGAAGAGCCAGUGAUGUUGGUAGAACUGGUAUAUAAAUAACACCCUUGGCAGCACAGUCACGUAC [whbob_Ex_Theo_B_sa100] | 305 nM | 241 nM | 297 nM | 279 nM | 242 nM
UGUAUGUGAUUUGAUACCAGACAAGCAGGUGUGACAAGAGUGAUGUUCUUGAUGGUUUGGGUCCCUUGGCAGCAAAUCGCAUACU [KL-SSTheoB16] | 194 nM | 145 nM | 178 nM | 141 nM | 154 nM
UGUAUGUGAUUUGAUACCAGACCAGGUGGAGGAAUCUGAGUGAUGUUCAGGUAGGUUUGGGUCCCUUGGCAGCAAAUCGCAUACU [KL-SSTheoB18] | 173 nM | 136 nM | 149 nM | 176 nM | 158 nM
